# In US20250361299A1 (published 2025):
# T1: Human CD3 protein (human, UniProt P07766 23-126)
# T1 chain: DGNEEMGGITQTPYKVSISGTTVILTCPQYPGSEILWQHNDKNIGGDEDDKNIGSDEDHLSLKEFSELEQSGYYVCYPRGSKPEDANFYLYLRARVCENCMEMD
# B1: 1.4.3M-Pa proBiTE (bispecific antibody)
# heavy: QDGNEEMGGIGGGSQDGNEEMGGGGGSGGGSGLSGRSDNHGGSEVQLVESGGGLVQPGGSLRLSCAASGFTFNTYAMNWVRQAPGKGLEWVARIRSKYNNYATYYADSVKGRFTISRDDSKNTLYLQMNSLRAEDTAVYYCARHGNFGSSYVSYFAYWGQGTTVTVSSGGGSSGGGGSGGGGSQVQLQESGPGLVKPSETLSLTCTVSGGSVSSGDYYWTWIRQSPGKGLEWIGHIYYSGNTNYNPSLKSRLTISIDTSKTQFSLKLSSVTAADTAIYYCVRDRVTGAFDIWGQGTMVTVSSASTKGPSVFPLAPSSKSTSGGTAALGCLVKDYFPEPVTVSWNSGALTSGVHTFPAVLQSSGLYSLSSVVTVPSSSLGTQTYICNVNHKPSNTKVDKKVEPKSCPPCPAPEAAGGPSVFLFPPKPKDTLMISRTPEVTCVVVDVSHEDPEVKFNWYVDGVEVHNAKTKPREEQYNSTYRVVSVLTVLHQDWLNGKEYKCKVSNKALPAPIEKTISKAKGQPREPQVYTLPPSRDELTKNQVSLLCLVKGFYPSDIAVEWESNGQPENNYKTTPPVLDSDGSFFLHSKLTVDKSRWQQGNVFSCSVMHEALHNHYTQKSLSLSPGK
# light: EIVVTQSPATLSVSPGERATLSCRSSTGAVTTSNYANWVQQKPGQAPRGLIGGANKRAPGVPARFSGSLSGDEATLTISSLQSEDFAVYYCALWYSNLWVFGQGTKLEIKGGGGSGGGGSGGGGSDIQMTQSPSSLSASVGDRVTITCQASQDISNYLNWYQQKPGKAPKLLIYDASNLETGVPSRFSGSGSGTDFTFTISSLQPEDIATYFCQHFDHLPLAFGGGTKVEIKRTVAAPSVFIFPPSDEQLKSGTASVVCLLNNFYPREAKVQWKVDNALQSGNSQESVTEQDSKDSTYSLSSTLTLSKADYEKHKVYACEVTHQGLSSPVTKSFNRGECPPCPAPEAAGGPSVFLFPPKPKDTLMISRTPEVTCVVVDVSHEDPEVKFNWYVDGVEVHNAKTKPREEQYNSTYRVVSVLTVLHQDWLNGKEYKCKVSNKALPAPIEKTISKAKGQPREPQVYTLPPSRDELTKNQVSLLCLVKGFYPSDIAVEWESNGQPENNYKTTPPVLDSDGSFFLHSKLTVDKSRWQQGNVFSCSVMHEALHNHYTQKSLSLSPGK
# B2: 1.6.1M-Pa proBiTE (bispecific antibody)
# heavy: QDGNEEMGGGSQDGNEEMGGIGGGSGGGGSGLSGRSDNHGGGGSEVQLVESGGGLVQPGGSLRLSCAASGFTFNTYAMNWVRQAPGKGLEWVARIRSKYNNYATYYADSVKGRFTISRDDSKNTLYLQMNSLRAEDTAVYYCARHGNFGSSYVSYFAYWGQGTTVTVSSASTKGPSVFPLAPSSKSTSGGTAALGCLVKDYFPEPVTVSWNSGALTSGVHTFPAVLQSSGLYSLSSVVTVPSSSLGTQTYICNVNHKPSNTKVDKKVEPKSCPPCPAPEAAGAPSVFLFPPKPKDTLMISRTPEVTCVVVDVSHEDPEVKFNWYVDGVEVHNAKTKPREEQYNSTYRVVSVLTVLHQDWLNGKEYKCKVSNKALPAPIEKTISKAKGQPREPQVYTLPPSRDELTKNQVSLLCLVKGFYPSDIAVEWESNGQPENNYKTTPPVLDSDGSFFLHSKLTVDKSRWQQGNVFSCSVMHEALHNHYTQKSLSLSPGK
# light: QVQLQESGPGLVKPSETLSLTCTVSGGSVSSGDYYWTWIRQSPGKGLEWIGHIYYSGNTNYNPSLKSRLTISIDTSKTQFSLKLSSVTAADTAIYYCVRDRVTGAFDIWGQGTMVTVSSGGGGSGGGGSGGGGSGGGGSDIQMTQSPSSLSASVGDRVTITCQASQDISNYLNWYQQKPGKAPKLLIYDASNLETGVPSRFSGSGSGTDFTFTISSLQPEDIATYFCQHFDHLPLAFGGGTKVEIKGGGGSGGGGSGGGGSGGGGSEIVVTQSPATLSVSPGERATLSCRSSTGAVTTSNYANWVQQKPGQAPRGLIGGANKRAPGVPARFSGSLSGDEATLTISSLQSEDFAVYYCALWYSNLWVFGQGTKLEIKRTVAAPSVFIFPPSDEQLKSGTASVVCLLNNFYPREAKVQWKVDNALQSGNSQESVTEQDSKDSTYSLSSTLTLSKADYEKHKVYACEVTHQGLSSPVTKSFNRGECPPCPAPEAAGAPSVFLFPPKPKDTLMISRTPEVTCVVVDVSHEDPEVKFNWYVDGVEVHNAKTKPREEQYNSTYRVVSVLTVLHQDWLNGKEYKCKVSNKALPAPIEKTISKAKGQPREPQVYTLPPSRDELTKNQVSLLCLVKGFYPSDIAVEWESNGQPENNYKTTPPVLDSDGSFFLHSKLTVDKSRWQQGNVFSCSVMHEALHNHYTQKSLSLSPGK
# B3: 1.6.1M-Pa-CTR (antibody)
# chain 1: EVQLVESGGGLVQPGGSLRLSCAASGFTFNTYAMNWVRQAPGKGLEWVARIRSKYNNYATYYADSVKGRFTISRDDSKNTLYLQMNSLRAEDTAVYYCARHGNFGSSYVSYFAYWGQGTTVTVSSASTKGPSVFPLAPSSKSTSGGTAALGCLVKDYFPEPVTVSWNSGALTSGVHTFPAVLQSSGLYSLSSVVTVPSSSLGTQTYICNVNHKPSNTKVDKKVEPKSCPPCPAPEAAGAPSVFLFPPKPKDTLMISRTPEVTCVVVDVSHEDPEVKFNWYVDGVEVHNAKTKPREEQYNSTYRVVSVLTVLHQDWLNGKEYKCKVSNKALPAPIEKTISKAKGQPREPQVYTLPPSRDELTKNQVSLLCLVKGFYPSDIAVEWESNGQPENNYKTTPPVLDSDGSFFLHSKLTVDKSRWQQGNVFSCSVMHEALHNHYTQKSLSLSPGK
# chain 2: B2 light
# B4: 1.6.1M-Pa proBiTE after uPA digestion (bispecific antibody)
# heavy: SDNHGGGGSEVQLVESGGGLVQPGGSLRLSCAASGFTFNTYAMNWVRQAPGKGLEWVARIRSKYNNYATYYADSVKGRFTISRDDSKNTLYLQMNSLRAEDTAVYYCARHGNFGSSYVSYFAYWGQGTTVTVSSASTKGPSVFPLAPSSKSTSGGTAALGCLVKDYFPEPVTVSWNSGALTSGVHTFPAVLQSSGLYSLSSVVTVPSSSLGTQTYICNVNHKPSNTKVDKKVEPKSCPPCPAPEAAGAPSVFLFPPKPKDTLMISRTPEVTCVVVDVSHEDPEVKFNWYVDGVEVHNAKTKPREEQYNSTYRVVSVLTVLHQDWLNGKEYKCKVSNKALPAPIEKTISKAKGQPREPQVYTLPPSRDELTKNQVSLLCLVKGFYPSDIAVEWESNGQPENNYKTTPPVLDSDGSFFLHSKLTVDKSRWQQGNVFSCSVMHEALHNHYTQKSLSLSPGK
# light: B2 light
# B5: 1.6.1M-Pa-Noncleavable BiTE (bispecific antibody)
# heavy: QDGNEEMGGGSQDGNEEMGGIGGGSGGGGSGLSGAGNHGGGGSEVQLVESGGGLVQPGGSLRLSCAASGFTFNTYAMNWVRQAPGKGLEWVARIRSKYNNYATYYADSVKGRFTISRDDSKNTLYLQMNSLRAEDTAVYYCARHGNFGSSYVSYFAYWGQGTTVTVSSASTKGPSVFPLAPSSKSTSGGTAALGCLVKDYFPEPVTVSWNSGALTSGVHTFPAVLQSSGLYSLSSVVTVPSSSLGTQTYICNVNHKPSNTKVDKKVEPKSCPPCPAPEAAGAPSVFLFPPKPKDTLMISRTPEVTCVVVDVSHEDPEVKFNWYVDGVEVHNAKTKPREEQYNSTYRVVSVLTVLHQDWLNGKEYKCKVSNKALPAPIEKTISKAKGQPREPQVYTLPPSRDELTKNQVSLLCLVKGFYPSDIAVEWESNGQPENNYKTTPPVLDSDGSFFLHSKLTVDKSRWQQGNVFSCSVMHEALHNHYTQKSLSLSPGK
# light: B2 light
# B6: 1.4.3M-Pa-Noncleavable (antibody)
# chain 1: QDGNEEMGGIGGGSQDGNEEMGGGGGSGGGSGGSEVQLVESGGGLVQPGGSLRLSCAASGFTFNTYAMNWVRQAPGKGLEWVARIRSKYNNYATYYADSVKGRFTISRDDSKNTLYLQMNSLRAEDTAVYYCARHGNFGSSYVSYFAYWGQGTTVTVSSGGGSSGGGGSGGGGSQVQLQESGPGLVKPSETLSLTCTVSGGSVSSGDYYWTWIRQSPGKGLEWIGHIYYSGNTNYNPSLKSRLTISIDTSKTQFSLKLSSVTAADTAIYYCVRDRVTGAFDIWGQGTMVTVSSASTKGPSVFPLAPSSKSTSGGTAALGCLVKDYFPEPVTVSWNSGALTSGVHTFPAVLQSSGLYSLSSVVTVPSSSLGTQTYICNVNHKPSNTKVDKKVEPKSCPPCPAPEAAGGPSVFLFPPKPKDTLMISRTPEVTCVVVDVSHEDPEVKFNWYVDGVEVHNAKTKPREEQYNSTYRVVSVLTVLHQDWLNGKEYKCKVSNKALPAPIEKTISKAKGQPREPQVYTLPPSRDELTKNQVSLLCLVKGFYPSDIAVEWESNGQPENNYKTTPPVLDSDGSFFLHSKLTVDKSRWQQGNVFSCSVMHEALHNHYTQKSLSLSPGK
# chain 2: not shown
# B7: 1.6.1M-Pa-Unmask iBiTE (bispecific antibody)
# heavy: B3 chain 1
# light: B2 light
# Tests used:
# Recombinant human EGFR [1] = biological target: T2, Recombinant human EGFR (human, UniProt P00533 25-645); experiment: ELISA; without uPA
# Human CD3 protein [2] = biological target: T1, Human CD3 protein; experiment: ELISA; without uPA
# Recombinant human EGFR [3] = biological target: T2, Recombinant human EGFR; experiment: ELISA; without uPA; remark: listed apart in the source
# Human CD3 protein [4] = biological target: T1, Human CD3 protein; experiment: ELISA; without uPA
# Recombinant human EGFR [5] = biological target: T2, Recombinant human EGFR; experiment: ELISA
# Human CD3 protein [6] = biological target: T1, Human CD3 protein; experiment: ELISA
# Recombinant human EGFR [7] = biological target: T2, Recombinant human EGFR; experiment: ELISA; with uPA
# Human CD3 protein [8] = biological target: T1, Human CD3 protein; experiment: ELISA; with uPA
# Recombinant human EGFR [9] = biological target: T2, Recombinant human EGFR; experiment: ELISA; remark: listed apart in the source
# Human CD3 protein [10] = biological target: T1, Human CD3 protein; experiment: ELISA
# Recombinant human EGFR [11] = biological target: T2, Recombinant human EGFR; experiment: ELISA; remark: listed apart in the source
# Human CD3 protein [12] = biological target: T1, Human CD3 protein; experiment: ELISA
binder,measurement,setting,value
B1,EC50,Recombinant human EGFR [1],0.244 µg/mL
same,EC50,Human CD3 protein [2],6.57 µg/mL
B2,EC50,Recombinant human EGFR [3],0.0154 µg/mL
same,EC50,Human CD3 protein [4],47.2 µg/mL
B3,EC50,Recombinant human EGFR [5],0.0264 µg/mL
same,EC50,Human CD3 protein [6],0.613 µg/mL
B4,EC50,Recombinant human EGFR [7],0.0186 µg/mL
same,EC50,Human CD3 protein [8],0.67 µg/mL
B5,EC50,Recombinant human EGFR [9],0.027 µg/mL
same,EC50,Human CD3 protein [10],~99500 µg/mL
B6,EC50,Recombinant human EGFR [11],0.255 µg/mL
same,EC50,Human CD3 protein [12],7.43 µg/mL
B7,EC50,Recombinant human EGFR [9],0.0106 µg/mL
same,EC50,Human CD3 protein [10],0.462 µg/mL
